Here are results for twelve molecules from publication PMC9284427 (The Journal of Cell Biology, 2022).

To fix the notation:
B2: RILP[1-106] (domain or fragment, human, UniProt Q96NA2-1 1-106, looked up)
chain: MEPRRAAPGVPGWGSREAAGSASAAELVYHLAGALGTELQDLARRFGPEAAAGLVPLVVRALELLEQAAVGPAPDSLQVSAQPAEQELRRLREENERLRRELRAGP
B3: GST::DLIC1[388-523] (domain or fragment, human, UniProt Q9Y6G9 388-523, looked up)
chain: PTAAGRPVDASPRVPGGSPRTPNRSVSSNVASVSPIPAGSKKIDPNMKAGATSEGVLANFFNSLLSKKTGSPGGPGVSGGSPAGGAGGGSSGLPPSTKKSGQKPVLDVHAELDRITRKPVTVSPTTPTSPTEGEAS
B5: MBP::UNC-16[1-120] (domain or fragment, C. elegans, UniProt P34609-1 1-120, looked up)
chain: MACNLSPVNEMADSITSSTPSEIVYGGPGSPDEHRTMSDKVQTMASAIYRELETMIKVHGEDGVKTLMPLVVNVLEALDLAYLERDEQTAELEMLKEDNEQLQTQYEREKALRKQTEQKY
B9: MBP-tagged JIP3[1-108] (domain or fragment, human, UniProt Q9UPT6-1 1-108, looked up)
chain: MMEIQMDEGGGVVVYQDDYCSGSVMSERVSGLAGSIYREFERLIHCYDEEVVKELMPLVVNVLENLDSVLSENQEHEVELELLREDNEQLLTQYEREKALRRQAEEKF

The target of the data set “MBP-tagged JIP3[1-108]” is B9. The experiment in a line: pull-down.
The next data set concerns the target T1, mouse JIP3[186-505] (mouse, UniProt Q9ESN9-5 186-505).
T1 sequence (looked up): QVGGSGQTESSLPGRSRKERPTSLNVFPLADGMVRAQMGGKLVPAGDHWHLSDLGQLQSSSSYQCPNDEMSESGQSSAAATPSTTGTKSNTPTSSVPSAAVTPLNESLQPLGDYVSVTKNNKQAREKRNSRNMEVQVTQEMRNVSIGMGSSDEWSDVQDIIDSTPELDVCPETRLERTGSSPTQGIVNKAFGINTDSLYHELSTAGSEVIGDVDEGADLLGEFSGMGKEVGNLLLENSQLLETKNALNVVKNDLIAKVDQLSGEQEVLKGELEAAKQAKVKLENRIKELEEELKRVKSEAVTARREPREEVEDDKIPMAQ
The data set can be described thus: pull-down.

The data set “GST::DLIC1[388-523]” addresses B3. The experiment in a line: pull-down.
A further data set deals with T2, full-length RILP (human, UniProt Q96NA2-1 1-401).
T2 sequence (looked up): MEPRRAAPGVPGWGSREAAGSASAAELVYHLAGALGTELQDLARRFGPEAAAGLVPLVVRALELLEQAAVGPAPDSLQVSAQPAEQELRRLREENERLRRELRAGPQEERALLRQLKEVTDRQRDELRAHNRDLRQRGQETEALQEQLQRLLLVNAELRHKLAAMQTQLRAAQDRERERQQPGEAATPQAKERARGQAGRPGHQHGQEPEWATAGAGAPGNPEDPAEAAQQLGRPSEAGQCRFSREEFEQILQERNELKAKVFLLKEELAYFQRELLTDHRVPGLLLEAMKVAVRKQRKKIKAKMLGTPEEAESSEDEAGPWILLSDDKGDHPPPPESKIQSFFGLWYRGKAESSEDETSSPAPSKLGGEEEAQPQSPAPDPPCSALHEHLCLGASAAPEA
The experiment in a line: pull-down.

Another data set has as its target DLIC1[388-523] (human, UniProt Q9Y6G9 388-523). The data set can be described thus: ITC.
The data set “AUC” concerns the molecule itself. The data set can be described thus: AUC.
Another data set has as its target UNC-116[675-815] (C. elegans, UniProt P34540 675-815). The experiment in a line: pull-down.
The data set “MBP::UNC-16[1-120]” concerns the target B5. The data set can be described thus: pull-down.
For data set [1], the target named is T3, GST::KIF5C[807-956] (mouse, UniProt P28738 807-956). The experiment in a line: pull-down.
T3 sequence (P28738 807-956): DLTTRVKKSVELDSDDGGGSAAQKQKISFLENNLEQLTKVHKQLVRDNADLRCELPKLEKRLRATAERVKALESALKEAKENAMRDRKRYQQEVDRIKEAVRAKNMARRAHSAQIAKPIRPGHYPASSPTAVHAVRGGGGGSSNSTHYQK
The target of data set [2] is T3, GST::KIF5C[807-956]. The experiment in a line: pull-down. This is another data set of the same source.
The data set “RILP[1-106]” addresses B2. The data set can be described thus: SEC. (In general: Size exclusion chromatography separates by hydrodynamic size, large species first.)

Read-outs that look alike come from different tables or passages of the source.

Sequence of UNC-116[675-815] (P34540 675-815): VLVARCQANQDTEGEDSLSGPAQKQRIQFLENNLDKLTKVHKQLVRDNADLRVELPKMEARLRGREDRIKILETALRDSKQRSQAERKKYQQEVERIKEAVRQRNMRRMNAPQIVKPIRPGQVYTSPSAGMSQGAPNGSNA

Turning to NMKAGATSEGVLANFFNSLLSKKTGS (peptide, UniProt Q9Y6G9 433-458, looked up) [DLIC-C helix 1 peptide (residues 433-458)], the binding result in the data set with MBP-tagged JIP3[1-108] was “binds”.

B1: GST-tagged KLC1[185-501] (domain or fragment, human, UniProt Q07866-1 185-501, looked up)
chain: DDPGQGIQQQHSSAAAAAQQGGYEIPARLRTLHNLVIQYASQGRYEVAVPLCKQALEDLEKTSGHDHPDVATMLNILALVYRDQNKYKDAANLLNDALAIREKTLGKDHPAVAATLNNLAVLYGKRGKYKEAEPLCKRALEIREKVLGKDHPDVAKQLNNLALLCQNQGKYEEVEYYYQRALEIYQTKLGPDDPNVAKTKNNLASCYLKQGKFKQAETLYKEILTRAHEREFGSVDDENKPIWMHAEEREECKGKQKDGTSFGEYGGWYKACKVDSPTVTTTLKNLGALYRRQGKFEAAETLEEAAMRSRKQGLDNV
As to B1, the binding result in the data set with mouse JIP3[186-505] is given as “binds”.
Regarding B2, the binding result in the data set with GST::DLIC1[388-523] is “binds”.
Turning to B3, the binding result in the data set with full-length RILP was “binds”.

B4: JIP4[1-103] (domain or fragment, human, UniProt O60271-1 1-103, looked up)
chain: MELEDGVVYQEEPGGSGAVMSERVSGLAGSIYREFERLIGRYDEEVVKELMPLVVAVLENLDSVFAQDQEHQVELELLRDDNEQLITQYEREKALRKHAEEKF
Turning to B4, in the data set with DLIC1[388-523], the Kd is roughly 4000 nM and the “stoichiometry N” value was 2 DLIC1-C molecules per RH1 dimer. Besides, the “stoichiometry N” value in the data set “AUC” was 2.
With B5, in the data set with UNC-116[675-815], the binding result is recorded as “binds”.

B6: MBP::UNC-16[1-120] V72Q (domain or fragment, C. elegans, UniProt P34609-1 1-120, looked up)
chain: MACNLSPVNEMADSITSSTPSEIVYGGPGSPDEHRTMSDKVQTMASAIYRELETMIKVHGEDGVKTLMPLVQNVLEALDLAYLERDEQTAELEMLKEDNEQLQTQYEREKALRKQTEQKY
In the case of B6, the binding result with UNC-116[675-815] is recorded as “binds”.

B7: GST::DLI-1[369-442] (domain or fragment, C. elegans, UniProt G5ED34 369-442, looked up)
chain: TTAAPKPRTMQEEPTDKDSPLANFFSNLLNKDKPSKVSSPSTVSQPMDAAATQAQLDRLLKSAQSPKPQPRDSD
Take B7: the binding result with MBP::UNC-16[1-120] was “binds”.

B8: JIP3[1-108] (domain or fragment, human, UniProt Q9UPT6-1 1-108, looked up)
chain: MMEIQMDEGGGVVVYQDDYCSGSVMSERVSGLAGSIYREFERLIHCYDEEVVKELMPLVVNVLENLDSVLSENQEHEVELELLREDNEQLLTQYEREKALRRQAEEKF
As to B8, in the data set with DLIC1[388-523], the Kd was roughly 1000 nM and the “stoichiometry N” value was 2 DLIC1-C molecules per RH1 dimer. In addition, in the data set “AUC”, the “stoichiometry N” value was 2. Besides, the binding result in the data set with GST::KIF5C[807-956] [1] is listed as “binds”.
For B9, in the data set with GST::KIF5C[807-956] [2], the binding result is listed as “binds”.

B10: JIP3[1-108] V60Q (domain or fragment, human, UniProt Q9UPT6-1 1-108, looked up)
chain: MMEIQMDEGGGVVVYQDDYCSGSVMSERVSGLAGSIYREFERLIHCYDEEVVKELMPLVQNVLENLDSVLSENQEHEVELELLREDNEQLLTQYEREKALRRQAEEKF
With B10, the “stoichiometry N” value in “AUC” is 2. For the same molecule, in the data set with GST::KIF5C[807-956] [1], the binding result is on record as “binds”.
SEGVLANFFNSLLSKK (domain or fragment, human) [DLIC1[440-455]]: the binding result with RILP[1-106] is listed as “binds”.

Usually Kd stands for the equilibrium constant for the complex coming apart. By stoichiometry N is commonly meant the number of molecules, sites or subunits per partner or assembly.
